# Test results as given in publication PMC4222275, “Biochemical and functional characterization of SpdA, a 2′, 3′cyclic nucleotide phosphodiesterase from Sinorhizobium meliloti” (BMC Microbiology, 2013).
# B1: SpdA (Sinorhizobium meliloti 1021) (protein)
# chain: MTKLIIFSDLHMVPEGETIIGLDPYRRLANGIAHVNRYHADADRVIFAGDLTHRADRASYERLKALLGELTPPAALMIGNHDRRDVFLDVFAEATTDANGFVQQVLDFADCRAILLDTLFAPPYDYPVSHAGHLCDRRLAWLDRQLEEAGGRPALIFMHHPPHISGFAGIDMIRLVNEDDFYALVKRHGNVRHIFAGHVHRTISGSSRGIPFSIFKSPVHQQPMPFDTADASLSVDEPAAYGIALVTGDGVLVHTEDYEIARRDAVGA
# notes: C-terminal His6 tag (pET-22b, NdeI-HindIII), tag kept, E. coli BL21(DE3), monomer, metal-free
# Substrate: Nc1ncnc2c1ncn2[C@@H]1O[C@H](CO)[C@H]2OP(=O)(O)O[C@H]21
# Experiment: phosphate release with calf intestine phosphatase, Biomol Green
# Format: biochemical, Sinorhizobium meliloti
# Details: 50 mM Tris-HCl pH 8, 5 mM beta-mercaptoethanol, 10 mM NaCl, 25 °C, 1 μM SpdA
protein,measurement,value
B1,Km,3.7 mM
same,kcat,2 s⁻¹
